From paper PMC6851316, “The C-terminal dimerization domain of the respiratory mucin MUC5B functions in mucin stability and intracellular packaging before secretion” (The Journal of Biological Chemistry, 2019)

T1: MUC5B C-terminal construct consisting of D4-B-C-CK (CT5B) (human, UniProt Q9HC84 4955-5762)
T1 construct: MUC5B, human, UniProtKB Q9HC84, D4-B-C-CK domains, residues 4955-5762; Mainly a disulfide-linked dimer with a small proportion of monomer; The dimer was used for cryo-EM, SPR (amine-coupled to a CM5 chip) and the homotypic tests; also called C-terminal dimerization domain of MUC5B; dimeric CT5B
T1 sequence (looked up): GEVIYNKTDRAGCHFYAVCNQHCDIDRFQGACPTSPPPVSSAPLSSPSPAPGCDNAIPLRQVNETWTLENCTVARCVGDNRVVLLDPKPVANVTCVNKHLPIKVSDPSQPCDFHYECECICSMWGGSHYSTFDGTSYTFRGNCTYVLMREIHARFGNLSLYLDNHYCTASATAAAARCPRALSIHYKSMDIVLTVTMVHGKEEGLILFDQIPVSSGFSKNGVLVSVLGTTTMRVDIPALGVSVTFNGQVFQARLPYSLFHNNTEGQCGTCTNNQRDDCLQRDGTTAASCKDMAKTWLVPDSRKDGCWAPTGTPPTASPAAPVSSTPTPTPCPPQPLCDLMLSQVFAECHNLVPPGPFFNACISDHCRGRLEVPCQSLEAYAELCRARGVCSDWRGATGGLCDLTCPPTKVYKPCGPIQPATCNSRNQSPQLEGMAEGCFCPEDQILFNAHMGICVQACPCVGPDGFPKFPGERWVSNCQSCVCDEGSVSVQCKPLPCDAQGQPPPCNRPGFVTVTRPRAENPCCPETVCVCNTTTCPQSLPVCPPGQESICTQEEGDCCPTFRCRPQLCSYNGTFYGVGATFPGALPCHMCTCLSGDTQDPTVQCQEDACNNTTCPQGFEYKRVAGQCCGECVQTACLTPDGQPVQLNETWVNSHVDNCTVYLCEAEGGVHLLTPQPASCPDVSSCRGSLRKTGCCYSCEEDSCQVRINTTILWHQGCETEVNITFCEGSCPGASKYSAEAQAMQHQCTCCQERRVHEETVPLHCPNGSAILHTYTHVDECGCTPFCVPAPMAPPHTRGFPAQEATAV

B1: MUC5B N-terminal construct consisting of D1-D2-D′-D3 (NT5B) (domain or fragment)
chain: QGPVEPSWENAGHTMDGGAPTSSPTRRVSFVPPVTVFPSLSPLNPAHNGRVCSTWGDFHYKTFDGDVFRFPGLCNYVFSEHCRAAYEDFNVQLRRGLVGSRPVVTRVVIKAQGLVLEASNGSVLINGQREELPYSRTGLLVEQSGDYIKVSIRLVLTFLWNGEDSALLELDPKYANQTCGLCGDFNGLPAFNEFYAHNARLTPLQFGNLQKLDGPTEQCPDPLPLPAGNCTDEEGICHRTLLGPAFAECHALVDSTAYLAACAQDLCRCPTCPCATFVEYSRQCAHAGGQPRNWRCPELCPRTCPLNMQHQECGSPCTDTCSNPQRAQLCEDHCVDGCFCPPGTVLDDITHSGCLPLGQCPCTHGGRTYSPGTSFNTTCSSCTCSGGLWQCQDLPCPGTCSVQGGAHISTYDEKLYDLHGDCSYVLSKKCADSSFTVLAELRKCGLTDNENCLKAVTLSLDGGDTAIRVQADGGVFLNSIYTQLPLSAANITLFTPSSFFIVVQTGLGLQLLVQLVPLMQVFVRLDPAHQGQMCGLCGNFNQNQADDFTALSGVVEATGAAFANTWKAQAACANARNSFEDPCSLSVENENYARHWCSRLTDPNSAFSRCHSIINPKPFHSNCMFDTCNCERSEDCLCAALSSYVHACAAKGVQLSDWRDGVCTKYMQNCPKSQRYAYVVDACQPTCRGLSEADVTCSVSFVPVDGCTCPAGTFLNDAGACVPAQECPCYAHGTVLAPGEVVHDEGAVCSCTGGKLSCLGASLQKSTGCAAPMVYLDCSNSSAGTPGAECLRSCHTLDVGCFSTHCVSGCVCPPGLVSDGSGGCIAEEDCPCVHNEATYKPGETIRVDCNTCTCRNRRWECSHRLCLGTCVAYGDGHFITFDGDRYSFEGSCEYILAQDYCGDNTTHGTFRIVTENIPCGTTGTTCSKAIKLFVESYELILQEGTFKAVARGPGGDPPYKIRYMGIFLVIETHGMAVSWDRKTSVFIRLHQDYKGRVCGLCGNFDDNAINDFATRSRSVVGDALEFGNSWKLSPSCPDALAPKDPCTANPFRKSWAQKQCSILHGPTFAACRSQVDSTKYYEACVNDACACDSGGDCECFCTAVAAYAQACHDAGLCVSWRTPDTCPLFCDFYNPHGGCEWHYQPCGAPCLKTCRNPSGHCLVDLPGLEGCYPKCPPSQPFFNEDQMKCVAQCGCYDKDGNYYDVGARVPTAENCQSCNCTPSGIQCA
modifications: RED-NHS (amine reactive) fluorescent dye, in the MST experiments only

Legend:
[1] = biological target: MUC5B C-terminal construct consisting of D4-B-C-CK (CT5B) (human) (UniProt Q9HC84); test: SEC-MALS; recombinant CT5B on Superose 6 10/300 GL, 0.2 M NaCl, pH 7.4; step: monomer to disulfide-linked dimer
[2] = biological target: MUC5B C-terminal construct consisting of D4-B-C-CK (CT5B) (human) (UniProt Q9HC84); test: AUC; sedimentation velocity; CT5B with 5 mM CaCl2 overnight at 4 °C, 150 mM NaCl, 25 mM HEPES pH 7.4 or 25 mM MES pH 6 or pH 5; tests the step dimer to higher multimers
[3] = biological target: MUC5B C-terminal construct consisting of D4-B-C-CK (CT5B) (human) (UniProt Q9HC84); test: SEC-MALS; CT5B incubated overnight at 4 °C in 5 mM CaCl2 or 5 mM EGTA, 150 mM NaCl, 25 mM HEPES pH 7.4 or 25 mM MES pH 6 or 5; Superose 6 10/300 GL at room temperature; tests the step dimer to higher multimers
[4] = biological target: T1, MUC5B C-terminal construct consisting …; test: MST; pH 6; 2.5 nM RED-NHS labelled NT5B, CT5B serially diluted 1:1 (starting concentration 6 μM); 25 mM HEPES, 150 mM NaCl, 0.05% Tween 20, with 5 mM CaCl2 or 5 mM EGTA; room temperature; KD model; conditions: both partners purified
[5] = biological target: T1, MUC5B C-terminal construct consisting …; test: MST; pH 7.4; 2.5 nM RED-NHS labelled NT5B, CT5B serially diluted 1:1 (starting concentration 6 μM); 25 mM HEPES, 150 mM NaCl, 0.05% Tween 20, with 5 mM CaCl2 or 5 mM EGTA; room temperature; KD model; conditions: both partners purified
[6] = biological target: T1, MUC5B C-terminal construct consisting …; test: SPR; single cycle kinetics, pH 7.4; CT5B immobilised on CM5 chip, NT5B 0, 5, 10, 15, 20 and 40 nM, HBS with 5 mM CaCl2 and 0.05% Tween 20; 1:1 Langmuir model; conditions: both partners purified
[7] = biological target: T1, MUC5B C-terminal construct consisting …; test: SPR; single cycle kinetics, pH 6; CT5B immobilised on CM5 chip, NT5B 0, 5, 10, 15, 20 and 40 nM, HBS with 5 mM CaCl2 and 0.05% Tween 20; 1:1 Langmuir model; conditions: both partners purified

Row | Molecule | stoichiometry N [1] | stoichiometry N [2] | stoichiometry N [3] | Kd [4] [nM] | Kd [5] [nM] | Kd [6] [nM] | binding response, fold lower than at pH 6 [6] [fold] | Kd [7] [nM]
1 | MUC5B C-terminal construct consisting of D4-B-C-CK (CT5B) (from UniProt Q9HC84 4955-5762) (domain or fragment) | 2 | 2 | 2 |  |  |  |  | 
2 | B1 |  |  |  | 3 ± 1.4 | 7.4 ± 1.5 | ~3 | 5 | ~1
